Consider one substance from PMC12421802.

The target of the assay is mutant MAP7D1 p.R201W (MAP7D1:c.601C>T), His/Myc-tagged (human) (UniProt Q3KQU3). In words: pull-down; 600 µg lysate of HEK293T cells overexpressing His/Myc-MAP7D1 (wt or mutant) incubated with MagneHis Ni particles in 100 mM HEPES, 10 mM imidazole, 500 mM NaCl, 4°C, 4 h; eluted with 500 mM imidazole; western blot with Myc-tag and β-tubulin antibodies; β-tubulin normalised to precipitated Myc-MAP7D1. (In general: Immunoblotting shows a protein as a band on a membrane.)
Chain of UniProt Q3KQU3 (Q3KQU3 whole entry R201W): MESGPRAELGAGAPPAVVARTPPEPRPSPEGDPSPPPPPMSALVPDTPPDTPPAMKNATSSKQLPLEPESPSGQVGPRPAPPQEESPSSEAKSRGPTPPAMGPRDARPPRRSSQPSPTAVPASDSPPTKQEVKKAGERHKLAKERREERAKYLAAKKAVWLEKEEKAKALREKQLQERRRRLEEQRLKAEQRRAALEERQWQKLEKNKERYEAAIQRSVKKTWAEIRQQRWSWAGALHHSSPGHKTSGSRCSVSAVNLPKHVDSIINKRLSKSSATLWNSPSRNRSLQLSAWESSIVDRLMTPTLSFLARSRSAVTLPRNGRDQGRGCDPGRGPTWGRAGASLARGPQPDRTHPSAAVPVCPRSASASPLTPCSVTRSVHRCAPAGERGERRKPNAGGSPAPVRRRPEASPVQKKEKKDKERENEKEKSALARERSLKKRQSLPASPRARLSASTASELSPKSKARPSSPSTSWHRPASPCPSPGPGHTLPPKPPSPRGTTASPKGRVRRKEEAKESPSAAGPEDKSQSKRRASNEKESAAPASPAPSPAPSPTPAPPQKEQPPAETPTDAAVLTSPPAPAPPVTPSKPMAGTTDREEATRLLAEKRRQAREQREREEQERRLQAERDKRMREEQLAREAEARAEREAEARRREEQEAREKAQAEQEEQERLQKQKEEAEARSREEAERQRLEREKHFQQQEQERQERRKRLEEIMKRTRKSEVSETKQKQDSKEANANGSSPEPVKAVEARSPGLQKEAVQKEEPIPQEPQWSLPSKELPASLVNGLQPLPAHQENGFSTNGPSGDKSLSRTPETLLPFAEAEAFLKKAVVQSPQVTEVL

For “β-tubulin (tubulin of microtubules) (from UniProt P07437 1-444) (natural protein)”, the decrease of co-precipitated tubulin relative to wild-type MAP7D1 was 40%.
